Article PMC8918821

Columns and labels:
[1] = target: cardiac sodium channel NaV1.5 α subunit of human origin (adult isoform) (human) (UniProt Q14524)
[2] = target: cardiac sodium channel NaV1.5 α subunit of human origin (adult isoform) (human) (UniProt Q14524); remark: listed apart in the source
[3] = target: cardiac sodium channel NaV1.5 α subunit of human origin (adult isoform) (human) (UniProt Q14524); remark: listed apart in the source

Chain of UniProt Q14524 (Q14524 whole entry, canonical isoform): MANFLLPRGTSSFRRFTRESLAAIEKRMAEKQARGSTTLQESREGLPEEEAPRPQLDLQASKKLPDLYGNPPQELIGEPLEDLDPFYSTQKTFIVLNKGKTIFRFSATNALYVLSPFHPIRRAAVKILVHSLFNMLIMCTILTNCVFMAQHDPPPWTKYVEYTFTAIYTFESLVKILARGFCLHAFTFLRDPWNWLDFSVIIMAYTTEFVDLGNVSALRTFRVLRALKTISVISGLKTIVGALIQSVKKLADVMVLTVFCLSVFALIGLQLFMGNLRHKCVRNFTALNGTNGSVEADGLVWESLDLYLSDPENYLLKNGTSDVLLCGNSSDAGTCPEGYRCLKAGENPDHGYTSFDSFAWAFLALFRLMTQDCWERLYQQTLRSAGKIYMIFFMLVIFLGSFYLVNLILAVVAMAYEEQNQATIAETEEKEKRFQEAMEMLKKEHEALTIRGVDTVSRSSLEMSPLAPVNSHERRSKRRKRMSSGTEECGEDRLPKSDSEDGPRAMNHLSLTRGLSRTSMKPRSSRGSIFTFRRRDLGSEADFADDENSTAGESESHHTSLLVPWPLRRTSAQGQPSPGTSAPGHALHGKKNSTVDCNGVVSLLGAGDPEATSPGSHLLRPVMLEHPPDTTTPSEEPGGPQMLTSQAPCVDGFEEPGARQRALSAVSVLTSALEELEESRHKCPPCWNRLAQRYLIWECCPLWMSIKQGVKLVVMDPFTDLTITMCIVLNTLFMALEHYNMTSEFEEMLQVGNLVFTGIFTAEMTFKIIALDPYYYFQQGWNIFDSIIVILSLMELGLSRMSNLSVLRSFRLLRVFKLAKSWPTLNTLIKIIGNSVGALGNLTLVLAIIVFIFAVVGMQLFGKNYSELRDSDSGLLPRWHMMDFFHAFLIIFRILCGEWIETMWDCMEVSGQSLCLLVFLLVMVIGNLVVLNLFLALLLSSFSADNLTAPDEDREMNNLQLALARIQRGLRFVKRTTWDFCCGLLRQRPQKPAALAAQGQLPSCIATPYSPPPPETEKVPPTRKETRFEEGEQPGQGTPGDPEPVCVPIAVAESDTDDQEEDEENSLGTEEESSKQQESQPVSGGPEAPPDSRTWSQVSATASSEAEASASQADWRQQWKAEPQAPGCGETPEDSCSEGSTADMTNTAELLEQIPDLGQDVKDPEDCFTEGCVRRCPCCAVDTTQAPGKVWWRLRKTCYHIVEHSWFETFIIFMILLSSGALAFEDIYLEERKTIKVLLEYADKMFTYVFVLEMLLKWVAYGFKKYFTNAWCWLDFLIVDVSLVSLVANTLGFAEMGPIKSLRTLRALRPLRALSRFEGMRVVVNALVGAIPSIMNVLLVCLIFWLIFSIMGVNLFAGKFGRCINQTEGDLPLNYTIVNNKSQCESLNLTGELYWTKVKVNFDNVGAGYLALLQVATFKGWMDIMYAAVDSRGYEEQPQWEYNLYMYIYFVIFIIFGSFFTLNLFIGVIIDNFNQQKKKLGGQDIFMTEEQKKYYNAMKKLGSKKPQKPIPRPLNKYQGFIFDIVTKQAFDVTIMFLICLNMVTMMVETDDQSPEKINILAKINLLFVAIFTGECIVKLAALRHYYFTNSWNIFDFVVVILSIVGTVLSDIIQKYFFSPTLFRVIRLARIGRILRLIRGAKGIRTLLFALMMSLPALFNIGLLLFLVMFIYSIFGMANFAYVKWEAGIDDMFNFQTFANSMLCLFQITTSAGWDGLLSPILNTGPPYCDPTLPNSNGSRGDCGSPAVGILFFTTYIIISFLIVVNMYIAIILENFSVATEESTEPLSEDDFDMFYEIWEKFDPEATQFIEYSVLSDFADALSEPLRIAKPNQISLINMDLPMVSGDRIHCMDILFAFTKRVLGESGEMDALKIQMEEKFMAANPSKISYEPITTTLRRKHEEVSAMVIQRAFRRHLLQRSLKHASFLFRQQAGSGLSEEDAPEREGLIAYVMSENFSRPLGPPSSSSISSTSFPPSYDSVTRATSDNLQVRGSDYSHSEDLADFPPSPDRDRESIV

AahII toxin from Androctonus australis Hector (from UniProt P01484 20-85) (natural protein)
whole-cell patch clamp: tau of NaV1.5 after AahII 75 nM for 7 min followed by 75 nM AahII + 75 nM Nb10 (1:1) up to 14 min [1]: 4.7 ms
whole-cell patch clamp on HEK293 cells expressing NaV1.5: factor by which inactivation is slowed against control, [AahII] 75, 150 and 300 nM [2]: 35 fold
whole-cell patch clamp: inactivation time constant (tau) of NaV1.5 after washout of AahII (75 nM) with control solution [2]: 5.2 ms
whole-cell patch clamp: tau of NaV1.5 after AahII 75 nM for 7 min followed by 75 nM Nb10 alone until 14 min [3]: 4.6
whole-cell patch clamp: tau of NaV1.5 with AahII 75 nM perfused for 7 min, before Nb10 alone [3]: 9.6 ms
